According to PMC10053435:
Blank lines part the entries; values can stand above or below the substance they belong to.

Legend:
[1] = biological target: mature Epinephelus coioides mtHsp60 (EcHsp60), without the mitochondrial importing signal (Epinephelus coioides (grouper)); test: cross-linking; dimeric EcHsp60 at 0.6 mg/ml, BS^3 0.15 to 0.6 mM, 37°C 30 min, phosphate buffer pH 7.6 with 300 mM NaCl, SDS-PAGE
[2] = biological target: mature Epinephelus coioides mtHsp60 (EcHsp60), without the mitochondrial importing signal (Epinephelus coioides (grouper)); test: SEC; protein homogenised and purified at room temperature (RT, 25°C); Superdex S200pg 16/600, 25 mM Tris-HCl pH 7.6, 150 mM NaCl, 1 ml/min
[3] = biological target: mature Epinephelus coioides mtHsp60 (EcHsp60), without the mitochondrial importing signal (Epinephelus coioides (grouper)); test: negative-stain TEM with single particle analysis; purified oligomeric EcHSP60 at 1 mg/ml, 2% uranyl acetate, 2D classification
[4] = biological target: mature Epinephelus coioides mtHsp60 (EcHsp60), without the mitochondrial importing signal (Epinephelus coioides (grouper)); test: SEC; protein homogenised and purified at 4°C (LT); Superdex S200pg 16/600, 25 mM Tris-HCl pH 7.6, 150 mM NaCl, 1 ml/min
[5] = biological target: naïve EcHsp60 K266A (Epinephelus coioides (grouper)); test: SEC; WT and mutated naïve EcHsp60 purified at 4°C; analytical Superdex 200 Increase 10/300 GL
[6] = biological target: naïve EcHsp60 R264AK266A (Epinephelus coioides (grouper)); test: as above
[7] = biological target: naïve EcHsp60 R264AK266A (Epinephelus coioides (grouper)); test: negative-stain TEM with single particle analysis; purified oligomeric EcHSP60 at 1 mg/ml, 2% uranyl acetate, 2D classification

stoichiometry N [1]: 2
stoichiometry N [2]: 7
stoichiometry N [3]: 7
stoichiometry N [4]: 2
Substance: mature Epinephelus coioides mtHsp60 (EcHsp60), without the mitochondrial importing signal (natural protein)

stoichiometry N [5]: 7
Substance: naïve EcHsp60 K266A (natural protein)

stoichiometry N [6]: 7
stoichiometry N [7]: 7
Substance: naïve EcHsp60 R264AK266A (natural protein)
